Source: US12070483B2, “Compositions and methods for treatment of acute lung injury” (THE TRUSTEES OF THE UNIVERSITY OF PENNSYLVANIA, priority 2018, dated 2024)

Legend:
ROS production in lung = assay: Lung ROS production (DFF-DA fluorescence) after IT LPS; assay type: in vivo, mouse; details: PIP-2 with IT LPS 5 μg/g; 6, 12 and 24 h
Procedure: (§1) FIGS. 9A and 9B: PIP-2 inhibits the increased lung aiPLA2 activity and increased ROS generation after LPS administration. LPS (5 μg/g body weight) was administered by intratracheal (IT) instillation along with liposomes alone (labeled as LPS) or with PIP-2 in liposomes (labeled as +PIP-2). Control was liposomes alone without LPS (labeled as control). Mice were sacrificed at 6, 12, or 24 h after LPS and lungs were perfused in situ for 15 min with saline solution containing the fluorophore difluorofluoroscein diacetate (DFF-DA). Lungs then were homogenized and assayed for: FIG. 9A: aiPLA2 activity; FIG. 9B: fluorescence of the lung homogenate as an index of ROS production. Results are mean±SE for N=3 for A and N=4 for B. *P<0.05 vs. Control and +PIP-2 at the same time point; ΔP<0.05 vs. corresponding value at 6 h.
To determine lung ROS production after LPS treatment, intact mice were treated with LPS (5 μg/g)±PIP-2 (2 μg/g). Mice were anesthesized at 6, 12, or 24 h after treatment with LPS and lungs in situ were cleared of blood and then perfused for […] with saline solution containing the fluorophore DFF-DA that is hydrolyzed intracellularly to DFF. Lungs were then homogenized, and fluorescence of the homogenate was measured at Ex 495 nm, Em 525 nm. Lung fluorescence was expressed as AFU per minute of perfusion with normalization to the mouse body wt.

aiPLA2 activity of Prdx6 = target: T1, aiPLA2 activity of Prdx6 (Mus musculus, UniProt O08709); assay: Lung aiPLA2 activity after IT LPS; assay type: in vivo; details: PIP-2 with IT LPS 5 μg/g; 6, 12 and 24 h
T1 construct: from tissue; host or cells: mouse lung homogenate (wild type mice)
T1 sequence (O08709 1-224): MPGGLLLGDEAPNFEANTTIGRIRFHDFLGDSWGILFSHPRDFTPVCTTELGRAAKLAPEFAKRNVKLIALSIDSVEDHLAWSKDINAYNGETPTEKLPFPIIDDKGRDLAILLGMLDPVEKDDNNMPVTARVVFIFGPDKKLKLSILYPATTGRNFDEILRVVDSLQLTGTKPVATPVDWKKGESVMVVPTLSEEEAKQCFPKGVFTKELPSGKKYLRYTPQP
Procedure: FIGS. 4A and 4B: Phospholipase A2 of Prdx6 (aiPLA2) was measured by the liberation of palmitic acid from dipalmitoylphosphatidylcholine under acidic conditions (pH 4) in the absence of Ca^2+. FIG. 4A: The effect of increasing concentration of PIP-2 on the aiPLA2 activity of recombinant human Prdx6. FIG. 4B: The effect of LPS and PIP-2 treatment on aiPLA2 activity of mouse lungs. Mice (n=3 for each condition) were treated with intratracheal LPS (2 μg/g body wt) without or with PIP-2 (2 μg/g body weight) in liposomes. Animals were sacrificed at 6,12, or 24 h after receiving LPS. Lungs were cleared of blood and homogenized.
as §1, with “Results are mean±SE for N=3 for A and N=4 for B. *P<0.05 vs. Control and +PIP-2 at the same time point; ΔP<0.05 vs. corresponding value at 6 h.” left out

Prdx6 = target: T2, Prdx6 (Mus musculus, UniProt O08709); details: PIP-2 2 μg/g in liposomes, for at least 24 h; shown previously; cited from earlier work
T2 construct: Lungs were harvested at intervals between 4 and 72 h after the PIP-2 administration, homogenized, and analyzed for Prdx6-PLA2 activity; from tissue; host or cells: mouse lung homogenate (wild type mice)
T2 sequence (O08709 1-224): T1 sequence (O08709 1-224)

## LHDFRHQIL (Inhibitory peptide.) [PIP-2]
ROS production in lung
  ROS-generated fluorescence of lung after LPS: dramatic decrease
aiPLA2 activity of Prdx6
  aiPLA2 activity of lung after LPS: dramatic decrease
Prdx6
  inhibition of lung aiPLA2 activity: ~90%
